Source: patent US8247168B2, “Regulation of gene expression by protein methylation” (University of Southern California, priority 1998, dated 2012)
Marks after values point to notes of the source that are not given here.

How the values were obtained:
[1] = tested on: androgen receptor, estrogen receptor, and thyroid hormone receptor; assay: Reporter gene activation by hormone-activated nuclear receptors in transiently transfected CV-1 cells; assay type: cell-based; details: co-expression of GRIP1 with NR, CV-1 cells, hormone present (lane d)
Description: (A) Transient transfection assays with CV-1 cells were performed as in FIG. 5 with 0.5 μg of GK1 reporter gene and 0.5 μg of each of the indicated vectors. (B) CV-1 cells were transiently transfected as in FIG. 5 with the following vectors, as indicated: 0.5 μg of nuclear receptor expression vector pSVAR0 (Brinkmann, A. O. et al. (1989) J. Steroid Biochem. Molec. Biol. 34:307) expressing AR, pHE0 (Green, S. et al. (1988) Nucleic Acids Res. 16:369) expressing ER, or pCMX.hTRβ1 (Feng, W. et al. (1998) Science 280:1747) expressing TR; 0.5 μg of a luciferase reporter gene with an appropriate promoter, MMTV promoter for AR, or MMTV promoter with the native glucocorticoid response elements replaced by a single estrogen response element for ER or palindromic thyroid hormone response element for TR (Umesono, K. and R. M. Evans (1989) Cell 57:1139); 0.5 μg of pSG5.HA-GRIP1; and 0.5 μg of pSG5.HA-CARM1 or pSG5.HA-CARM1 (VLD mutant). Transfection efficiency was monitored by using βgalactosidase activity expressed from 0.1 μg of co-transfected pCMV-βgal vector (Hong, H. et al. (1996) Proc. Natl. Acad. Sci. USA 93:4948-4952) as an internal control. After transfection, cells were grown in charcoal-treated serum; where indicated 20 nM hormone (H), i.e. dihydrotestosterone for AR, estradiol for ER, or triiodothyronine for TR, was included during the last 40 h of culture. […]

[2] = tested on: hnRNPA1; assay: Methylation of hnRNP A1, SDS-PAGE and fluorography (FIG. 8C); assay type: biochemical, human; details: 0.083 mg/ml hnRNP-A1
Description: CARM1 and PRMT1 have different protein methyltransferase substrate specificities. CARM1 methylates histone H3, whereas PRMT1 methylates histone H4. […] (A,B) Calf thymus histones (Boehringer Mannheim) were incubated for 30 min at 30° C. in 32.5 μl reactions containing 20 mM Tris-Cl, 0.2 M NaCl, 4 mM EDTA, pH 8.0, 0.32 mg/ml individual histone (2a, 2b, 3, or 4) or 1.3 mg/ml mixed histone (M), 0.037 mg/ml GST-CARM1 or GST-PRMT1, and 7 μM S-adenosyl-L-[methyl-^3H]methionine (specific activity of 14.7 Ci/mmol). Reactions were stopped by addition of SDS-NuPAGE sample buffer (Novex), and 40% of each stopped reaction was then subjected to SDS-PAGE in 4-12% NuPAGE Bis-Tris gradient gels (Novex) using the Na-MES running buffer. Gels were stained with Coomassie Blue R-250 (A), and then subjected to fluorography (Chamberlin, M. (1978) Anal. Biochem. 98:132) for 12 h at −70° C. on sensitized Kodak XAR-5 film (B). Molecular weight markers (MW) are shown at left. Concentrations of GST fusion proteins were determined in comparison with bovine serum albumin standards (Sigma) by SDS polyacrylamide gel electrophoresis and Coomassie Blue staining; it was assumed that bovine serum albumin stained twice as intensely as most other proteins. Concentrations of histones and hnRNP A1 were determined by the method of Lowry (Lowry, O. H. et al. (1951) J. Biol. Chem. 193:265). […]

[3] = tested on: R1 peptide SEQ ID NO: 4 […]-NH2; assay: Methyltransferase reaction with R1 peptide substrate, reversed-phase HPLC separation; assay type: biochemical; details: substrate R1 peptide (120 μM); enzyme 0.03-0.05 mg/ml
[4] = tested on: mixed histones (calf thymus); assay: Methyltransferase reaction with mixed histones, reversed-phase HPLC separation; assay type: biochemical; details: substrate mixed histones (2.7 mg/ml), enzyme 0.03-0.05 mg/ml
[5] = target: T1, K1 peptide SEQ ID NO: 5 […]-NH2 (Mus musculus, UniProt Q9WVG6, W314R); assay: Methyltransferase reaction with K1 peptide substrate, reversed-phase HPLC separation; assay type: biochemical; details: substrate K1 peptide (120 μM); enzyme 0.03-0.05 mg/ml
T1 construct: A 3.2-kb partial CARM1 cDNA clone with an open reading frame of 606 amino acids (CARM1(3-608)); made in house; host or cells: E. coli strain BL21
T1 sequence (Q9WVG6 3-608 W314R): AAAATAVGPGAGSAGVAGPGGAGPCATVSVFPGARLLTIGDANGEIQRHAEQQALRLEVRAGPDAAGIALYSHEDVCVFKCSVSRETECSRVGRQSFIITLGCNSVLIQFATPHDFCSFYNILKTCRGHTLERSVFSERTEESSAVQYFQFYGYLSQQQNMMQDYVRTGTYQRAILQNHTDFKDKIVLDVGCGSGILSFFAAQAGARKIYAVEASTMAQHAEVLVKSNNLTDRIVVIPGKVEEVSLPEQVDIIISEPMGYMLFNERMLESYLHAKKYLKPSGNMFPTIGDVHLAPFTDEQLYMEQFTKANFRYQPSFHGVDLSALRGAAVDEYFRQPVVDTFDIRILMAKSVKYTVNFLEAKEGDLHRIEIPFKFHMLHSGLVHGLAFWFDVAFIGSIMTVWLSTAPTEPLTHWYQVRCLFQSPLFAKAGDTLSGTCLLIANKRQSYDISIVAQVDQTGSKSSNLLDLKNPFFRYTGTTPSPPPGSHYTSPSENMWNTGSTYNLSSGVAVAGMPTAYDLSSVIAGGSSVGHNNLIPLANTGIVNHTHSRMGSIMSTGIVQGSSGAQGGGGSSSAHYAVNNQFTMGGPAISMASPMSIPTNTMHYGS

Molecule: GRIP1: p160 nuclear receptor coactivator
- enhancement of reporter gene expression by the hormone-activated NR [1]: 2 to 27 fold

Molecule: PRMT1: related mammalian protein arginine methyltransferase [reference compound]
- methylation of hnRNPA1 [2]: good substrate

B1: GST-CARM1: glutathione S-transferase fusion protein of CARM1 produced in E. coli (protein)
chain: AAAATAVGPGAGSAGVAGPGGAGPCATVSVFPGARLLTIGDANGEIQRHAEQQALRLEVRAGPDAAGIALYSHEDVCVFKCSVSRETECSRVGRQSFIITLGCNSVLIQFATPHDFCSFYNILKTCRGHTLERSVFSERTEESSAVQYFQFYGYLSQQQNMMQDYVRTGTYQRAILQNHTDFKDKIVLDVGCGSGILSFFAAQAGARKIYAVEASTMAQHAEVLVKSNNLTDRIVVIPGKVEEVSLPEQVDIIISEPMGYMLFNERMLESYLHAKKYLKPSGNMFPTIGDVHLAPFTDEQLYMEQFTKANFRYQPSFHGVDLSALRGAAVDEYFRQPVVDTFDIRILMAKSVKYTVNFLEAKEGDLHRIEIPFKFHMLHSGLVHGLAFWFDVAFIGSIMTVWLSTAPTEPLTHWYQVRCLFQSPLFAKAGDTLSGTCLLIANKRQSYDISIVAQVDQTGSKSSNLLDLKNPFFRYTGTTPSPPPGSHYTSPSENMWNTGSTYNLSSGVAVAGMPTAYDLSSVIAGGSSVGHNNLIPLANTGIVNHTHSRMGSIMSTGIVQGSSGAQGGGGSSSAHYAVNNQFTMGGPAISMASPMSIPTNTMHYGS
modifications: left off: a dimerising Fc or GST
notes: glutathione S-transferase fusion protein of CARM1 produced in E. coli
- Methyltransferase specific activity [3]: 21.6-54.5^a pmol/min/mg
- Methyltransferase specific activity [4]: 971 pmol/min/mg
- Methyltransferase specific activity [5]: 0.7 pmol/min/mg
